Measurements as given in patent US20240083986A1 (published 2024).
Numbering of substitutions follows the chain as printed. Names may count otherwise. Values belong to the binder of their own block, whether it stands above or below them.

What was measured:
[1] = biological target: T1, Apple (Mal d 1, MyBiosource, Cat #MBS1224919) (Apple, UniProt P43211 2-159, limits assumed); experiment: SPR Biacore, 25C;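 further: binding of related allergens to purified monoclonal anti-Bet v 1 antibodies by surface plasmon resonance in HEPES-buffered saline pH 7.4, kinetics fitted to a 1:1 model with mass transport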
T1 construct: Bought reagent
T1 sequence (looked up): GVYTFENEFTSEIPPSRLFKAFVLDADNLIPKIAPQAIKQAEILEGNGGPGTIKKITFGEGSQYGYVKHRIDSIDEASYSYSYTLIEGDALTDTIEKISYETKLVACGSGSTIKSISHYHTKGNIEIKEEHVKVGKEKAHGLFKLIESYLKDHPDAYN

[2] = biological target: T2, European Hornbeam (Car b 1 isoform 1A & 1B, MyBiosource, Cat #MBS1200018) (European Hornbeam, UniProt P38949 2-160); experiment: SPR Biacore, 25C;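 further: binding of related allergens to purified monoclonal anti-Bet v 1 antibodies by surface plasmon resonance in HEPES-buffered saline pH 7.4, kinetics fitted to a 1:1 model with mass transport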
T2 construct: Bought reagent
T2 sequence (looked up): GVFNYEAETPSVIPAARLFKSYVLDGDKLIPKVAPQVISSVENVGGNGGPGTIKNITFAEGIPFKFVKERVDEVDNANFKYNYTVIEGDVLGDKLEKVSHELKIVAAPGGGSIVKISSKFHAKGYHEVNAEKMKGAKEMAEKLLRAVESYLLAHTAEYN

[3] = biological target: T3, Celery (Api g 1, MyBiosource, Cat #MBS1171376) (Celery, UniProt P49372 1-154, limits assumed); experiment: SPR Biacore, 25C;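 further: binding of related allergens to purified monoclonal anti-Bet v 1 antibodies by surface plasmon resonance in HEPES-buffered saline pH 7.4, kinetics fitted to a 1:1 model with mass transport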
T3 construct: Bought reagent
T3 sequence (looked up): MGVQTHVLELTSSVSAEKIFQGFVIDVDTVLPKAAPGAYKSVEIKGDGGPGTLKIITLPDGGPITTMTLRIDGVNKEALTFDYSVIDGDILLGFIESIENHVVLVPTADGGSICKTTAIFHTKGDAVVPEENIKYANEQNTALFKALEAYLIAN

[4] = biological target: T4, natural Bet v 1 (Indoor, Cat #NA-BV1-1) (Betula verrucosa (European white birch, …, UniProt P15494 2-160)); experiment: SPR Biacore, mAb captured on anti-hFc, 25C;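 further: rate constants from sensorgrams fitted to a 1:1 model with mass transport limitation, KD and t½ derived from kinetic constants, run in HBS-ET buffer at pH 7.4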
T4 construct: Bought natural protein purified from birch pollen; also called nBet v 1
T4 sequence: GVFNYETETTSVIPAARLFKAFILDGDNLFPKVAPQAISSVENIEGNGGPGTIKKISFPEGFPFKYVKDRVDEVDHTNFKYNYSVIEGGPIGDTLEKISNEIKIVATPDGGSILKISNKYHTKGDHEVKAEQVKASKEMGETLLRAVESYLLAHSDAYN

[5] = biological target: T5, mutant Bet v 1-MMH (Betula verrucosa (European white birch, …)); experiment: BLI Octet HTX, mutant Bet v 1-MMH captured on anti-Penta-His tips, 25C
T5 construct: also called CHO produced recombinant Bet v 1 containing a S85A mutation with a C-terminal myc-myc hexahistidine tag
T5 chain: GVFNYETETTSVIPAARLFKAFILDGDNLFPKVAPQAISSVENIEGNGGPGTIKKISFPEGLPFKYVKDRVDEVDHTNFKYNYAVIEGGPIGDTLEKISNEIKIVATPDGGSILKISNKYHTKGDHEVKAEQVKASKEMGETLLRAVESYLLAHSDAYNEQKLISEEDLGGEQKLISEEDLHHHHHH

[6] = biological target: T4, natural Bet v 1 (Indoor, Cat #NA-BV1-1); experiment: SPR Biacore, mAb captured on anti-hFc, 37C;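 further: purified anti-Bet v 1 monoclonal antibodies, HBS-ET running buffer pH 7.4, rate constants from 1:1 model fit with mass transport limitation, KD and t½ calculated from kinetic constants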
[7] = biological target: T6, mutant Bet v 1-MMH (Betula verrucosa (Betula pendula)); experiment: BLI Octet, mutant Bet v 1-MMH captured on anti-Penta-His tips
T6 construct: CHO produced; also called recombinant mutant Bet v 1 with C-terminal myc-myc-hexahistidine tag
T6 chain: T5 chain

[8] = biological target: T4, natural Bet v 1 (Indoor, Cat #NA-BV1-1); experiment: cell-based or functional assay
[9] = biological target: T7, natural Bet v 1 (Betula verrucosa (Betula pendula), UniProt P15494 2-160); experiment: blocking ELISA, biotin nBet v 1 to captured IgE, donor 23939-MH
T7 construct: bought natural protein (Indoor Biotechnologies #NA-BV1-1); also called nBet v 1; Biotinylated Bet v 1
T7 chain: T4 sequence with F62L

[10] = biological target: T7, natural Bet v 1; experiment: blocking ELISA, biotin nBet v 1 to captured IgE, donor 23035-BL
[11] = biological target: T7, natural Bet v 1; experiment: dose-response blocking ELISA, biotin nBet v 1 to captured IgE, donor 25609-MS
[12] = biological target: T7, natural Bet v 1; experiment: dose-response blocking ELISA, biotin nBet v 1 to captured IgE, donor 23939-MH
[13] = biological target: T7, natural Bet v 1; experiment: blocking ELISA, biotin nBet v 1 to captured IgE, donor 26532-CC
[14] = biological target: T7, natural Bet v 1; experiment: dose-response blocking ELISA, biotin nBet v 1 to captured IgE, donor 25340-RR
[15] = biological target: T7, natural Bet v 1; experiment: blocking ELISA, biotin nBet v 1 to captured IgE, donor 29718-MW
[16] = biological target: T7, natural Bet v 1; experiment: blocking ELISA, biotin nBet v 1 to captured IgE, donor 25609-MS
[17] = biological target: T7, natural Bet v 1; experiment: blocking ELISA, biotin nBet v 1 to captured IgE, donor 25299-RJ
[18] = biological target: T7, natural Bet v 1; experiment: blocking ELISA, biotin nBet v 1 to captured IgE, donor 25414-CW
[19] = biological target: T7, natural Bet v 1; experiment: blocking ELISA, biotin nBet v 1 to captured IgE, donor 25340-RR
[20] = biological target: T8, Alder (Aln g 1, MyBiosource, Cat #MBS1041484) (Alder, UniProt P38948 2-160, limits assumed); experiment: SPR Biacore, 25C;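 further: binding of related allergens to purified monoclonal anti-Bet v 1 antibodies by surface plasmon resonance in HEPES-buffered saline pH 7.4, kinetics fitted to a 1:1 model with mass transport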
T8 construct: Bought reagent
T8 sequence (looked up): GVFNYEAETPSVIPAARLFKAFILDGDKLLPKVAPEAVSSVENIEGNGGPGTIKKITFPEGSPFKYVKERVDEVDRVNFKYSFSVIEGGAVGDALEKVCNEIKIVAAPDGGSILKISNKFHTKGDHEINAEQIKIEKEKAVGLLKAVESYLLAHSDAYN

binding result [1]: no binding (tested: 100 nM)
binding result [2]: no binding (tested: 100 nM)
binding result [3]: no binding (tested: 100 nM)
100 nM natural Bet v 1 Bound (RU) [4]: 71 RU
Kd [4]: 1 nM
koff [4]: 0.000329 s⁻¹
kon [4]: 329000 M⁻¹ s⁻¹
t½ [4]: 35 min
binding result [5]: no binding (tested: 50 µg/mL)
100 nM natural Bet v 1 Bound (RU) [6]: 87 RU
Kd [6]: 2.52 nM
koff [6]: 0.00122 s⁻¹
kon [6]: 485000 M⁻¹ s⁻¹
t½ [6]: 9.5 min
B1: H4H17001P (antibody, human IgG4, V domains shown)
VH: QVQLVESGGGLVKPGGSLRLSCAASGFTFSDYYMNWIRQAPGKGLEWISLISSSGSAIYYSDSVKGRFTISRDNARKSLYLQVNSLRAEDTAVYYCARDRGEWALGAYYYGLDVWGQGTTVTVSS
VL: DIVMTQSPLSLPVTPGEPASISCRSSQSLLHSDGYNYLDWYLQKSGQSPQLLIYLGSNRASGVPDRFSGSGSGTDFTLKISRMEAEDVGVYYCMQALQTPYTFGQGTKLEIK

binding result [7]: no binding (tested: 50 µg/mL)
B2: H4H17001P (antibody, human IgG4, V domains shown)
VH: B1 VH
VL: B1 VL
notes: human IgG4 Fc (H4H prefix)

100 nM natural Bet v 1 Bound (RU) [4]: 72 RU
Kd [4]: 1.09 nM
blockade of basophil activation (phospho-Erk MFI in basophils of PBMCs of birch allergic donors, 100 pM natural Bet v 1) [8]: 70%
100 nM natural Bet v 1 Bound (RU) [6]: 83 RU
Kd [6]: 2.43 nM
t½ [6]: 6.3 min
B3: H4H17082P2 (antibody, human IgG4 S228P, kappa, V domains shown)
VH: QVQLVQSGAEVKKPGASVKVSCKASGYTFISYNIFWVRQATGQGLDWMGWMNPFRNNAGYAQKFQGRVTVTWDTSISTAYMELSSLSSEDTAIYYCAREHGSSWGFFDYWGQGTLVTVSS
VL: not shown
notes: human IgG4; also called REGN5715; MAB2

Percent Blocking (at 1 µg/mL each antibody) [9]: 79%
Percent Blocking (at 1 µg/mL each antibody) [10]: 52%
Percent Blocking (at 1 µg/mL each antibody) [11]: 56.4%
Percent Blocking (at 1 µg/mL each antibody) [12]: 82.9%
Percent Blocking (at 1 µg/mL each antibody) [13]: 74%
Percent Blocking (at 1 µg/mL each antibody) [14]: 82.7%
Percent Blocking (at 1 µg/mL each antibody) [15]: 49%
Percent Blocking (at 1 µg/mL each antibody) [16]: 51%
Percent Blocking (at 1 µg/mL each antibody) [17]: 66%
Percent Blocking (at 1 µg/mL each antibody) [18]: 38%
Percent Blocking (at 1 µg/mL each antibody) [19]: 81%
B4: H4H17082P2 (antibody, human IgG4 S228P, kappa, V domains shown)
VH: B3 VH
VL: not shown
notes: fully human, human IgG4 Fc (H4H prefix); also called MAB2; REGN5715

binding result [1]: no binding (tested: 100 nM)
binding result [20]: no binding (tested: 100 nM)
binding result [3]: no binding (tested: 100 nM)
100 nM natural Bet v 1 Bound (RU) [4]: 71 RU
Kd [4]: 1.4 nM
koff [4]: 0.00023 s⁻¹
kon [4]: 164000 M⁻¹ s⁻¹
t½ [4]: 50 min
binding result [5]: no binding (tested: 50 µg/mL)
100 nM natural Bet v 1 Bound (RU) [6]: 88 RU
Kd [6]: 4.89 nM
koff [6]: 0.00127 s⁻¹
kon [6]: 260000 M⁻¹ s⁻¹
t½ [6]: 9.1 min
B5: H4H16943P (antibody, human IgG4, V domains shown)
VH: EVQLVESGGGLVQPGGSLRLSCTASGFMSSMYWMSWVRQAPGKGLEWVSNIKQDGTEKNYVESVKGRFTISRDNAKNSLYLQINSLRGEDTAVYYCARDLYSSSSGYYYYGLDVWGQGTTVTVSS
VL: DIVMTQSPLSLPVTPGEPASISCRSSQSLLHSNKYNYLDWYLQKPGQSPQLLIYLSSNRASGVPDRFSGSGSGTEFTLKISRVEAEDVGIYYCMQALHTPLTFGGGTKVEIK

binding result [7]: no binding (tested: 50 µg/mL)
B6: H4H16943P (antibody, human IgG4, V domains shown)
VH: B5 VH
VL: B5 VL
notes: human IgG4 Fc (H4H prefix)
